{"source": "paper PMC3976300", "assay_in_all_cases": "intrinsic fluorescence quenching", "key": {"[1]": {"test_system": "Alr0088 (Anabaena sp. PCC7120)", "details": "Fluorescence: 20 mM Tris-HCl pH 8, 1 mM EDTA, 20 or 100 mM NaCl, room temperature, EMSA: 20 mM Tris-HCl pH 8, 1 mM MgCl2, 100 mM KCl, 8 mM DTT, 4% sucrose …"}, "[2]": {"test_system": "All4779 (Anabaena sp. PCC7120)", "details": "Fluorescence: 20 mM Tris-HCl pH 8, 1 mM EDTA, 20 or 100 mM NaCl, room temperature, EMSA: 20 mM Tris-HCl pH 8, 1 mM MgCl2, 100 mM KCl, 8 mM DTT, 4% sucrose …"}, "[3]": {"test_system": "EcoSSB (Escherichia coli)", "details": "20 mM NaCl; Fluorescence: 20 mM Tris-HCl pH 8, 1 mM EDTA, 20 or 100 mM NaCl, room temperature; EMSA: 20 mM Tris-HCl pH 8, 1 mM MgCl2, 100 mM KCl, 8 mM DTT, 4% sucrose …"}, "[4]": {"details": "20 mM NaCl, reciprocal of poly(dT) concentration at 50% fluorescence"}}}
{"substance": "M13 ssDNA", "values": [{"measurement": "binding signal", "setting": "[1]; high NaCl", "result": 40, "unit": "% quenching"}, {"measurement": "binding signal", "setting": "[2]; high NaCl", "result": 18, "unit": "% quenching"}]}
{"substance": "poly(dT)", "values": [{"measurement": "Ka", "setting": "[1]; [4]", "result": "2.56e+06", "unit": "M⁻¹"}, {"measurement": "Ka", "setting": "[2]; [4]", "result": "5.13e+07", "unit": "M⁻¹"}, {"measurement": "Ka", "setting": "[3]", "result": "6.76e+07", "unit": "M⁻¹"}]}
